This is an account of results in patent US20220177583A1.

For experiment [1], the target named is human CLDN6 fused to GFP, expressed on engineered HEK293T cells (human) (UniProt P56747). The experiment is described as follows: FACS, 293T clone with human CLDN6, 0.3 ug Ab. Background: Flow cytometry measures light scatter and fluorescence of single cells or particles in a stream.
Experiment [2] shares this target. The experiment is described as follows: FACS, 293T clone with human CLDN6, 1.5 ug Ab.

B1: AB1-3 (antibody, V domains shown)
VH: QVQLVQSGAEVKKPGASVKVSCKASGYTFTTYTMHWVRQAPGQGLEWMGFINPSSGYTDYAQKFQGRVTMTADTSTSTVYMELSSLRSEDTAVYYCANGDYYVAYWGQGTLVTVSS
VL: DIQMTQSPSSLSASVGDRVTITCTASSSVSSTYFHWYQQKPGKAPKLLIYSTSNLASGVPSRFSGSGSGTDYTLTISSLQPEDFATYYCHQYHRSPLTFGQGTKLEIK
For B1, the FACS signal in experiment [1] and in experiment [2] was 142000 each time.

B2: AB1-5 (antibody, V domains shown)
VH: QVQLVQSGAEVKKPGASVKVSCKASGYTFTTYTMHWVRQAPGQGLEWMGFINPSSGYTDYAQKFQGRVTMTADTSTSTVYMELSSLRSEDTAVYYCANGDYYVAYWGQGTLVTVSS
VL: DIQLTQSPSSLSASVGDRVTMTCTASSSVSSTYFHWYQQKPGKAPKLWIYSTSNLASGVPSRFSGSGSGTDYTLTISSMQPEDAATYYCHQYHRSPLTFGQGTKLEIK
On to B2, for which the FACS signal amounted to 138000 in experiment [1] and 213000 in experiment [2].

B3: AB1-6 (antibody, V domains shown)
VH: QVQLVQSGAEVKKPGASVKMSCKASGYTFTTYTMHWVRQAPGQGLEWIGFINPSSGYTDYAQKFQGRVTLTADTSTSTVYMELSSLRSEDTAVYYCANGDYYVAYWGQGTLVTVSS
VL: DIQMTQSPSSLSASVGDRVTITCTASSSVSSTYFHWYQQKPGKAPKLLIYSTSNLASGVPSRFSGSGSGTDYTLTISSLQPEDFATYYCHQYHRSPLTFGQGTKLEIK
B3: the figures for the FACS signal in experiment [1] and in experiment [2] were 120000 and 227000, respectively.

B4: AB1-4 (antibody, V domains shown)
VH: QVQLVQSGAEVKKPGASVKVSCKASGYTFTTYTMHWVRQAPGQGLEWMGFINPSSGYTDYAQKFQGRVTMTADTSTSTVYMELSSLRSEDTAVYYCANGDYYVAYWGQGTLVTVSS
VL: DIQLTQSPSSLSASVGDRVTMTCTASSSVSSTYFHWYQQKPGKAPKLLIYSTSNLASGVPSRFSGSGSGTDYTLTISSMQPEDAATYYCHQYHRSPLTFGQGTKLEIK
In the case of B4, the FACS signal in experiment [1] was determined as 102000; in experiment [2], 197000.

B5: AB1-7 (antibody, V domains shown)
VH: QVQLVQSGAEVKKPGASVKMSCKASGYTFTTYTMHWVRQAPGQGLEWIGFINPSSGYTDYAQKFQGRVTLTADTSTSTVYMELSSLRSEDTAVYYCANGDYYVAYWGQGTLVTVSS
VL: DIQLTQSPSSLSASVGDRVTMTCTASSSVSSTYFHWYQQKPGKAPKLLIYSTSNLASGVPSRFSGSGSGTDYTLTISSMQPEDAATYYCHQYHRSPLTFGQGTKLEIK
In the case of B5, the figures for the FACS signal in experiment [1] and in experiment [2] were 79200 and 207000, respectively.

B6: AB1-8 (antibody, V domains shown)
VH: QVQLVQSGAEVKKPGASVKMSCKASGYTFTTYTMHWVRQAPGQGLEWIGFINPSSGYTDYAQKFQGRVTLTADTSTSTVYMELSSLRSEDTAVYYCANGDYYVAYWGQGTLVTVSS
VL: DIQLTQSPSSLSASVGDRVTMTCTASSSVSSTYFHWYQQKPGKAPKLWIYSTSNLASGVPSRFSGSGSGTDYTLTISSMQPEDAATYYCHQYHRSPLTFGQGTKLEIK
With B6, the FACS signal in experiment [1] is 98800; in experiment [2] it was 210000.

B7: AB1-11 (antibody, V domains shown)
VH: QVQLVQSGAEVKKPGASVKMSCKASGYTFTTYTMHWVRQAPGQGLEWIGFINPSSGYTDYAQKFQGRVTLTADKSTSTVYMELSSLRSEDTAVYYCANGDYYVAYWGQGTLVTVSS
VL: DIQLTQSPSSLSASVGDRVTMTCTASSSVSSTYFHWYQQKPGKAPKLWIYSTSNLASGVPSRFSGSGSGTDYTLTISSMQPEDAATYYCHQYHRSPLTFGQGTKLEIK
B7: the figures for the FACS signal in experiment [1] and in experiment [2] were 64900 and 113000, respectively.

B8: AB4-3 (antibody, V domains shown)
VH: QVQLVQSGAEVKKPGASVKVSCKASGYTFTSYTMHWVRQAPGQGLEWMGYINPSSTYTHYAQKFQGRVTMTADTSTSTVYMELSSLRSEDTAVYYCSRGELGGFAYWGQGTLVTVSS
VL: DVVMTQSPLSLPVTLGQPASISCRSSQSLVHSDGNTYLNWYQQRPGQSPRLLIYKVSNRFSGVPDRFSGSGSGTDFTLKISRVEAEDVGVYYCSQSTHVPYTFGQGTKLEIK
Consider B8, for which the figures for the FACS signal in experiment [1] and in experiment [2] were 14300 and 47800, respectively.

B9: AB4-6 (antibody, V domains shown)
VH: QVQLVQSGAEVKKPGASVKMSCKASGYTFTSYTMHWIRQAPGQGLEWIGYINPSSTYTHYAQKFQGRATLTADKSTSTAYMELSSLRSEDTAVYYCSRGELGGFAYWGQGTLVTVSS
VL: DVVMTQSPLSLPVTLGQPASISCRSSQSLVHSDGNTYLNWYQQRPGQSPRLLIYKVSNRFSGVPDRFSGSGSGTDFTLKISRVEAEDVGVYYCSQSTHVPYTFGQGTKLEIK
For the molecule B9, the FACS signal in experiment [1] turned out to be 10800; in experiment [2], 29200.

B10: AB4-7 (antibody, V domains shown)
VH: QVQLVQSGAEVKKPGASVKMSCKASGYTFTSYTMHWIRQAPGQGQEWIGYINPSSTYTHYAQKFQGRATLTADKSTSTAYMELSSLRSEDTAVYYCSRGELGGFAYWGQGTLVTVSS
VL: DVVMTQSPLSLPVTLGQPASISCRSSQSLVHSDGNTYLNWYQQRPGQSPRLLIYKVSNRFSGVPDRFSGSGSGTDFTLKISRVEAEDVGVYYCSQSTHVPYTFGQGTKLEIK
Consider B10, for which the figures for the FACS signal in experiment [1] and in experiment [2] were 19200 and 33300, respectively.

B11: AB4-8 (antibody, V domains shown)
VH: QVQLVQSGAEVKKPGASVKVSCKASGYTFTSYTMHWVRQAPGQGLEWMGYINPSSTYTHYIKKFKDRVTMTADTSTSTVYMELSSLRSEDTAVYYCSRGELGGFAYWGQGTLVTVSS
VL: DVVMTQSPLSLPVTLGQPASISCRSSQSLVHSDGNTYLNWYQQRPGQSPRLLIYKVSNRFSGVPDRFSGSGSGTDFTLKISRVEAEDVGVYYCSQSTHVPYTFGQGTKLEIK
B11: the FACS signal in experiment [1] amounted to 49300; in experiment [2] it was 77600.

B12: AB4-5 (antibody, V domains shown)
VH: QVQLVQSGAEVKKPGASVKMSCKASGYTFTSYTMHWIRQAPGQGQEWIGYINPSSTYTHYAQKFQGRATLTADTSTSTAYMELSSLRSEDTAVYYCSRGELGGFAYWGQGTLVTVSS
VL: DVVMTQSPLSLPVTLGQPASISCRSSQSLVHSDGNTYLNWYQQRPGQSPRLLIYKVSNRFSGVPDRFSGSGSGTDFTLKISRVEAEDVGVYYCSQSTHVPYTFGQGTKLEIK
Regarding B12, the FACS signal in experiment [1] turned out to be 16800; in experiment [2], 43400.

B13: AB4-4 (antibody, V domains shown)
VH: QVQLVQSGAEVKKPGASVKMSCKASGYTFTSYTMHWIRQAPGQGLEWIGYINPSSTYTHYAQKFQGRATLTADTSTSTAYMELSSLRSEDTAVYYCSRGELGGFAYWGQGTLVTVSS
VL: DVVMTQSPLSLPVTLGQPASISCRSSQSLVHSDGNTYLNWYQQRPGQSPRLLIYKVSNRFSGVPDRFSGSGSGTDFTLKISRVEAEDVGVYYCSQSTHVPYTFGQGTKLEIK
As for B13, the FACS signal in experiment [1] is 14100; in experiment [2], 49000.

B14: AB3-2 (antibody, V domains shown)
VH: EVQLLESGGGLVQPGGSMRLSCAASGFTFSNYWMNWVRQAPGKGLEWVAQIRLKSDNYATHYADSVKGRFTISRDDSKNTVYLQMNSLRAEDTGVYYCNDGPPSGCWGQGTLLTVSS
VL: DIQMTQSPSSLSASVGDRVTITCRISENIYSYLAWYQQKPGKAPKLLIYNAKILVEGVPSRFSGSGSGTDFTLTISSLQPEDFATYYCQHHYTVPWTFGQGTKLEIK
Take B14: the results for the FACS signal in experiment [1] and in experiment [2] were 309000 and 396000, respectively.

B15: AB3-4 (antibody, V domains shown)
VH: EVQLLESGGGLVQPGGSMRLSCAASGFTFSNYWMNWVRQAPGKGLEWVAQIRLKSDNYATHYADSVKGRFTISRDDSKNTVYLQMNSLRAEDTGVYYCNDGPPSGYWGQGTLLTVSS
VL: DIQMTQSPSSLSASVGDRVTITCRISENIYSYLAWYQQKPGKAPKLLIYNAKILVEGVPSRFSGSGSGTDFTLTISSLQPEDFATYYCQHHYTVPWTFGQGTKLEIK
For the molecule B15, the FACS signal amounted to 11600 in experiment [1] and 55800 in experiment [2].

B16: AB3-5 (antibody, V domains shown)
VH: EVQLLESGGGLVQPGGSMRLSCAASGFTFSNYWMNWVRQAPGKGLEWVAQIRLKSDNYATHYADSVKGRFTISRDDSKNTVYLQMNSLRAEDTGVYYCNDGPPSGYWGQGTLLTVSS
VL: DIQMTQSPSSLSASVGDRVTITCRISENIYSYLAWYQQKPGKAPKLLVYNAKILVEGVPSRFSGSGSGTDFTLTISSLQPEDFGTYYCQHHYTVPWTFGQGTKLEIK
As to B16, the FACS signal in experiment [1] stood at 13300; in experiment [2] it was 48600.

B17: AB3-3 (antibody, V domains shown)
VH: EVQLLESGGGLVQPGGSMRLSCAASGFTFSNYWMNWVRQAPGKGLEWVAQIRLKSDNYATHYADSVKGRFTISRDDSKNTVYLQMNSLRAEDTGVYYCNDGPPSGCWGQGTLLTVSS
VL: DIQMTQSPSSLSASVGDRVTITCRISENIYSYLAWYQQKPGKAPKLLVYNAKILVEGVPSRFSGSGSGTDFTLTISSLQPEDFGTYYCQHHYTVPWTFGQGTKLEIK
Turning to B17, the figures for the FACS signal in experiment [1] and in experiment [2] were 251000 and 340000, respectively.

B18: AB3-chim (antibody, V domains shown)
VH: EVKLEESGGGLVQPGGSMKLSCVASGFTFSNYWMNWVRQSPEKGLEWVAQIRLKSDNYATHYAESVKGRFTISRDDSKRSVYLQMNNLRAEDTGTYYCNDGPPSGCWGQGTTLIVSS
VL: DIQMTQSPASLSASVGETVTITCRISENIYSYLAWYQQKQGKSPQLLVYNAKILVEGVPSRFSGSGSGTQFSLKINSLQPEDFGNYYCQHHYTVPWTFGGGTKLEIK
With B18, the FACS signal is 267000 in experiment [1] and 459000 in experiment [2].

B19: AB1-Chim (antibody, V domains shown)
VH: QVQLQQSAAELARPGASVKMSCKASGYTFTTYTMHWVKQRPGQGLEWIGFINPSSGYTDYNQKFKDRTTLTADKSSSTVYMQLSSLTSEDSAVYYCANGDYYVAYWGQGTLVTVSA
VL: QIVLTQSPAIMSASLGERVTMTCTASSSVSSTYFHWYQQKPGSSPKLWIYSTSNLASGVPRRFSGSASGTSYSLTISSMEAEDAATYYCHQYHRSPLTFGAGTKLELK
Regarding B19, the FACS signal is 312000 in experiment [1] and 364000 in experiment [2].
